Here are results for four molecules from patent US20200010567A1 (NEURIMMUNE, published 2020).

The target of assay [1] is T1, BSA-coupled (GA)15 DPR protein peptide (bovine, conjugated via a bifunctional linker (SMCC) to bovine serum albumin).
T1 construct: also called BSA-(GA)15
Nature of the assay: indirect ELISA, BSA-coupled peptide coated, antibody titrated [also D00012 FIG. 3B]. The method, then: (§1) In brief, dipeptide repeat proteins were synthesized and purified by Schafer-N(Copenhagen, Denmark): (GA)₁₅: H-CHHHHHH(GA)₁₅-OH; (GP)₁₅: H-C(GP)₁₅-OH; (GR)₁₅: H-C(GR)₁₅-OH; (PA)₁₅: H-C(PA)₁₅-OH; (PR)₁₅: H—C(PR)₁₅-OH. DPR protein peptides were then conjugated via a bifunctional linker (SMCC) to bovine serum albumin (BSA). 96-well microplates (Corning Incorporated, Corning, USA) were coated with BSA-coupled or -uncoupled dipeptide repeat protein peptides at a concentration of either 5 μg/ml or 20 μg/ml in coating buffer (15 mM Na₂CO₃, 35 mM NaHCO₃, pH 9.42). Non-specific binding sites were blocked for 1 h at room temperature with PBS/0.1% Tween®-20 containing 2% BSA (Sigma-Aldrich, Buchs, Switzerland). Primary antibodies were diluted to the indicated concentrations and incubated 1 h at room temperature, followed by incubation with a donkey anti-human IgG Fcγ-specific antibody conjugated with HRP (Jackson ImmunoResearch Laboratories, Inc., West Grove, USA). Binding was determined by measurement of HRP activity in a standard colorimetric assay. EC₅₀ values were estimated by non-linear regression using GraphPad Prism software (San Diego, USA).
For orientation: ELISA stands for enzyme-linked immunosorbent assay.

The target of another assay is T2, GP5: H-(GP)5HHHHHH-NH2.
T2 peptide: H-GPGPGPGPGPHHHHHH-NH2
Description: indirect ELISA, His-tagged peptide coated at 50 ug/ml, antibody titrated [also D00027 FIG. 7N]. From the text: (§2) In brief, dipeptide repeat proteins were synthesized and purified by Schafer-N (Copenhagen, Denmark): GA₂₀: H-(GA)₂₀HHHHHH-NH₂; GA₁₀: H-(GA)₁₀HHHHHH-NH₂; GA₆: H-(GA)₆HHHHHH-NH₂; GA₅: H-(GA)₅HHHHHH-NH₂; GA₄: H-(GA)₄HHHHHH-NH₂; GA₃: H-(GA)₃HHHHHH-NH₂; GA₂: H-(GA)₂HHHHHH-NH₂; GP₂₀: H-(GP)₂₀HHHHHH-NH₂; GP₁₀: H-(GP)₁₀HHHHHH-NH₂; GP₆: H-(GP)₆HHHHHH-NH₂; GP₅: H-(GP)₅HHHHHH-NH₂; GP₄: H-(GP)₄HHHHHH-NH₂; GP₃: H-(GP)₃HHHHHH-NH₂; GP₂: H-(GP)₂HHHHHH-NH₂. GR₂₀: H-(GR)₂₀HHHHHH-NH₂; GR₁₀: H-(GR)₁₀HHHHHH-NH₂; GR₆: H-(GR)₆HHHHHH-NH₂; GR₅: H-(GR)₅HHHHHH-NH₂; GR₄: H-(GR)₄HHHHHH-NH₂; GR₃: H-(GR)₃HHHHHH-NH₂; GR₂: H-(GR)₂HHHHHH-NH₂; PA₂₀: H-(PA)₂₀HHHHHH-NH₂; PA₁₀: H-(PA)₁₀HHHHHH-NH₂; PA₆: H-(PA)₆HHHHHH-NH₂; PA₅: H-(PA)₅HHHHHH-NH₂; PA₄: H-(PA)₄HHHHHH-NH₂; PA₃: H-(PA)₃HHHHHH-NH₂; PA₂: H-(PA)₂HHHHHH-NH₂; PR₂₀: H-(PR)₂₀HHHHHH-NH₂; PR₁₀: H-(PR)₁₀HHHHHH-NH₂; PR₆: H-(PR)₆HHHHHH-NH₂; PR₅: H-(PR)₅HHHHHH-NH₂; PR₄: H-(PR)₄HHHHHH-NH₂; PR₃: H-(PR)₃HHHHHH-NH₂; PR₂: H-(PR)₂HHHHHH-NH₂. 96-well microplates (Corning Incorporated, Corning, USA) were coated with dipeptide repeat protein peptides at a concentration of 50 μg/ml in coating buffer (15 mM Na₂CO₃, 35 mM NaHCO₃, pH 9.42). Non-specific binding sites were blocked for 1 h at room temperature with PBS/0.1% Tween®-20 containing 2% BSA (Sigma-Aldrich, Buchs, Switzerland). Primary antibodies were diluted to the indicated concentrations and incubated 1 h at room temperature, followed by incubation with a donkey anti-human IgG Fcγ-specific antibody conjugated with HRP (Jackson ImmunoResearch Laboratories, Inc., West Grove, USA). Binding was determined by measurement of HRP activity in a standard colorimetric assay. EC₅₀ values were estimated by non-linear regression using GraphPad Prism software (San Diego, USA).

A further assay concerns the target T3, GP4: H-(GP)4HHHHHH-NH2.
T3 peptide: H-GPGPGPGPHHHHHH-NH2
The description is as above.
Excerpt: as §2

In the next assay the target is T4, GP3: H-(GP)3HHHHHH-NH2.
T4 peptide: H-GPGPGPHHHHHH-NH2
The description is as above.
Excerpt: as §2

A further assay deals with T5, GP2: H-(GP)2HHHHHH-NH2.
T5 peptide: H-GPGPHHHHHH-NH2
The assay is described as above.
Excerpt: as §2

The target in the next assay is T6, (GP)15: H-C(GP)15-OH.
T6 construct: synthetic, not coupled to BSA; also called poly-GP DPR protein peptide
T6 peptide: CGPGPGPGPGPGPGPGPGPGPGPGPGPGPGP
Description: indirect ELISA, uncoupled peptide coated, antibody titrated [also D00014 FIG. 3G]. Here is the method:
as §1

Assay [2] addresses T7, BSA-coupled (GP)15 DPR protein peptide (bovine, conjugated via a bifunctional linker (SMCC) to bovine serum albumin).
T7 construct: also called BSA-(GP)15
Nature of the assay: indirect ELISA, BSA-coupled peptide coated, antibody titrated [also D00014 FIG. 3G]. The method, then:
as §1

A further assay concerns the target T8, (GR)15: H-C(GR)15-OH.
T8 construct: synthetic, not coupled to BSA; also called poly-GR DPR protein peptide
T8 peptide: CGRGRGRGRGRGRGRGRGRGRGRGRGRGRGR
Nature of the assay: indirect ELISA, uncoupled peptide coated, antibody titrated [also D00014 FIG. 3I]. The method, then:
as §1

T7 sequence (P02769 25-607 limits assumed, chain 2 of 2, one chain of several): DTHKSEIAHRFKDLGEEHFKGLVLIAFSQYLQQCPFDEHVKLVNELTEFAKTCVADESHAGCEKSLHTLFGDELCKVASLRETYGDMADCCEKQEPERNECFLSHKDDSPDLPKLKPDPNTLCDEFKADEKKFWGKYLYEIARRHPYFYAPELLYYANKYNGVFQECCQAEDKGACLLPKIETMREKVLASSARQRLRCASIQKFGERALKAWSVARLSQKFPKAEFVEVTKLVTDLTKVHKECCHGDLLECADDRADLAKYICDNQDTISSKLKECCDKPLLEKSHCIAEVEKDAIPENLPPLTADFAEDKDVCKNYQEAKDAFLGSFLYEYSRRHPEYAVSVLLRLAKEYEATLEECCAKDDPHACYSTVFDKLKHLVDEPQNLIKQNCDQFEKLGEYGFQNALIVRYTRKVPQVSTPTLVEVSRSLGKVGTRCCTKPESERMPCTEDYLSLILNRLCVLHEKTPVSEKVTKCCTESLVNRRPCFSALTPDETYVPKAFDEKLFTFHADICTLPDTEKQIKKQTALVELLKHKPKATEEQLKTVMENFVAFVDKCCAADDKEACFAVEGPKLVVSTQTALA
T1 sequence (peptide, as listed by the source limits assumed, chain 1 of 2): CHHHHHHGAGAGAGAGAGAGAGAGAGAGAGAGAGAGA
T1 sequence (P02769 25-607 limits assumed, chain 2 of 2): as the sequence (P02769 25-607 limits assumed, chain 2 of 2, one chain of several) above

B1: NI-308.18F7 (antibody, V domains shown)
VH: QVQLQESGPGLVKPSETLSVTCTVSGGSINDYYWNWIRQPAGKGLEWIGRIYASGTINYNPSLQSRVTMSIDTSKNQFSLDLISVSAADTAVYYCARWGQVVGDYYYGMDVWGQGTTVTVSS
VL: EIVLTQSPLSLSVTPGEPASISCKSSQSLQHTNGYNYLDWYLLKPGQSPQLLIFLTSNRASGVPDRFSGSGSGTNFTLKISRVEAEDVGVYYCMEGIQLWTFGQGTKLEIK
notes: Recombinant complete human IgG1, kappa
The term EC50 denotes the concentration giving half of the maximal effect. In the case of B1, the midpoint of the response in assay [1], the EC50, lay at 0.11 nM.

B2: NI-308.46E9 (antibody, V domains shown)
VH: QVQLQESGPGLVKPSETLSLTCTVSGASISGSTYYWGWIRQPPGKGLEYIGRIYYSGSTYYNPSLKSRATISVDTSKNQLSLTLSSVTAADTAVYYCVRPFYAGSGNSPFDYWGQGTLVTVSS
VL: CEIVLTQSPATVSVSPGERATLSCRASQSVSTNLAWYQQKPGQPPRLLIYGASTRATGIPARFSGSGSGAEFTLTISSLQSEDFVVYYCQQYNNWPPAFGGGTKVEIK
notes: as for B1
As to B2, the binding result with GP5: H-(GP)5HHHHHH-NH2, in the assay with GP4: H-(GP)4HHHHHH-NH2, with GP3: H-(GP)3HHHHHH-NH2 and with GP2: H-(GP)2HHHHHH-NH2 was “no binding (tested: about 4x10^5 pM (last point))” in each case.

B3: NI-308.5G2 (antibody, V domains shown)
VH: EVQLVQSGADLRNPGASVTVSCTASGYHFADNAINWLRQAPGQRLEWMGWINIYSGNTKYSQNFQGRVTFTRNTSASTAFMHLRSLRSEDTAVYFCARDPDSSGYYLPYFDYWGQGTLVTVSS
VL: DIQLTQSPDSLTLSLGERATINCKSSQSVFYNSNNKNYLAWYQQKPGQPPKLLMYWASTRESGVTDRFSGSGSGTDFTLTITNLQAEDVAVYYCQQFYSSPLTFGGGTKVEIK
notes: as for B1
With B3, the EC50 in the assay with (GP)15: H-C(GP)15-OH was 0.4 nM; in assay [2] it was 0.21 nM.

B4: NI-308.6B11 (antibody, V domains shown)
VH: EVQLVQSGAEVKRPGASVKVSCKVSGYTLTELSMHWVRQAPGKGLEWMGGFDPEDGETVYAQKFQGRVTMTEDTSTDTAYMELSSLRSEDTALYHCATYGSSWHWNEGNEGSYYFDYWGQGTLVTVSS
VL: CDIQMTQSPSSLSASVGDRVTITCQASQDISIYLNWYQQKPGKAPKLLIYDASNLETGVPSRFSGSGSGTDFTFTISGLQPEDVARYYCQQYDDLPITFGQGTRLEIK
notes: as for B1
Consider B4, for which, in the assay with (GR)15: H-C(GR)15-OH, a half-maximal effect (EC50) was put at 1.3 nM.
